The Kd is the constant that tells how readily two partners part at equilibrium. As a reminder, the koff is a measure of how fast the partners let go of each other. As a reminder, the kon is the second-order rate constant of association.

The target in assay [1] is CS1 on ETEC strain #200145 (enterotoxigenic Escherichia coli (ETEC)). In words: cell-based or functional assay.
In assay [2] the target is CS19 on ETEC strain #204648 (enterotoxigenic Escherichia coli (ETEC)). In words: cell-based or functional assay.
The target of assay [3] is CS3 on ETEC strain #100483 (enterotoxigenic Escherichia coli (ETEC)). The assay is described as follows: cell-based or functional assay.
Assay [4] addresses CS6 on ETEC strain #100001 (enterotoxigenic Escherichia coli (ETEC)). In words: cell-based or functional assay.
Assay [5] addresses CS4 on ETEC strain (enterotoxigenic Escherichia coli (ETEC)). The assay is described as follows: cell-based or functional assay.
For assay [6], the target named is T1, CFA/I fimbrial protein (with adhesin subunit CfaE) on ETEC strain H10407 (enterotoxigenic Escherichia coli (ETEC), UniProt P25734 1-360).
T1 sequence (looked up): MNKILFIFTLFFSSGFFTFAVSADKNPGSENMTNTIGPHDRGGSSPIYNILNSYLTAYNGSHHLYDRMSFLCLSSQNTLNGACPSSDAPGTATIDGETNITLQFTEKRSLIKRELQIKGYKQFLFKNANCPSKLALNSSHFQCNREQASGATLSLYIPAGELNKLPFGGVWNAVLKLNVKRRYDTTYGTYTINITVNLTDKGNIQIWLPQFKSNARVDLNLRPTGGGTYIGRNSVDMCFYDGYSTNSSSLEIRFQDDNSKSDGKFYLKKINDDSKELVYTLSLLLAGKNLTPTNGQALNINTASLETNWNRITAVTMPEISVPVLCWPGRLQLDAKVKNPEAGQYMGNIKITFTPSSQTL
In words: cell-based or functional assay.

Assay [7] concerns the target CS21 on ETEC strain #100171 (enterotoxigenic Escherichia coli (ETEC)). In words: cell-based or functional assay.
Assay [8] concerns the target CS5 on ETEC strain #204348 (enterotoxigenic Escherichia coli (ETEC)). The assay is described as follows: cell-based or functional assay.
Assay [9] concerns the target CS2 on ETEC strain #201546 (enterotoxigenic Escherichia coli (ETEC)). In words: cell-based or functional assay.
Assay [10] has as its target CS14 on ETEC strain #400599 (enterotoxigenic Escherichia coli (ETEC)). In words: cell-based or functional assay.
Assay [11] concerns the target CS17 on ETEC strain (enterotoxigenic Escherichia coli (ETEC)). The assay is described as follows: cell-based or functional assay.
Assay [12] concerns the target T2, MBP-CfaE-N (recombinant N-terminal adhesin domain of CfaE fused to an MBP tag) (enterotoxigenic Escherichia coli (ETEC), UniProt P25734 24-205, Biotinylated for SPR; FITC or Alexa dye labelled for flow cytometry; sites not stated.).
T2 construct: Used plain (ELISA), biotinylated (SPR) and FITC/Alexa-labelled (flow cytometry); GenBank M55661 is printed for the nucleic acid; also called recombinant N-terminal truncated CfaE protein; N-terminal CfaE protein
T2 sequence: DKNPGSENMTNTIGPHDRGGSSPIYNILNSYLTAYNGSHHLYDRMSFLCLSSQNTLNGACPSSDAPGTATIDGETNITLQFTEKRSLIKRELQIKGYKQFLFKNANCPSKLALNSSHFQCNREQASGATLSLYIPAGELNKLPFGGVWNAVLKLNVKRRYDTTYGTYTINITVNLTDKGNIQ
In words: SPR (Biacore T200), CfaE on CM5 chip, VHH injected, 25 C, 1:1 model.

Assay [13] has as its target T3, recombinant CS2 (N-terminal adhesin domain of CotD, MBP-tagged) (enterotoxigenic Escherichia coli (ETEC)).
T3 construct: also called CotD, CS2; colonization factor antigen CS2
T3 chain: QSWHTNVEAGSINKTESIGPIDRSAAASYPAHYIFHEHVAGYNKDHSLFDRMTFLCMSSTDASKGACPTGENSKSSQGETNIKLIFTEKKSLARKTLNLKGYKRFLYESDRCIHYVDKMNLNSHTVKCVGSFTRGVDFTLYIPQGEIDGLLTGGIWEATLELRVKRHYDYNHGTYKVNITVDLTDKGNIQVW
In words: ELISA on coated recombinant antigen. In general terms: In an ELISA, binding on a coated surface is turned into a signal by an enzyme label.

B1: VHH antibody 2R23 (monomeric) (VHH)
VHH: QVQLQESGGGLVQAGGSLRLSCAASGYIFWSYGYMGWYRQAPGKERELVATISRGGTTNYADSVKGRFTISRDNAKNTVYLQMNSLKPEDTAVYYCAAGRYAFGYFKYWGQGTQVTVSS
notes: also called clone 2R23
B1: the “MRHA IC100” value is 200 µg/mL in assay [1]; 200 µg/mL in [2]; 100 µg/mL in assay [3]; 12.5 µg/mL in assay [4]; 25 µg/mL in assay [5]; 50 µg/mL in assay [6]. Moreover, the “MRHA IC100” value in assay [7] came out at 25 µg/mL; in [8] it was 12.5 µg/mL; in [9] it was 200 µg/mL; in assay [10], 25 µg/mL; in assay [11], 6.25 µg/mL. Moreover, the Kd in [12] amounted to 9.06 nM. Moreover, the koff in [12] worked out at 64.6 s⁻¹. Further, the kon in assay [12] turned out to be 7.13e+09 M⁻¹ s⁻¹.

B2: VHH antibody 2R215 (monomeric) (VHH)
VHH: QVQLQESGGGLVQAGGSLRLSCAASGNIFQDAEMGWYRQAPGKEREFVATIAYGGNTNYADSVKGRFTISRDNAKNTVYLQMNSLKPEDTAVYYCAVYTGVYYDRTTGGYVAFEYWGQGTQVTVSS
In the case of B2, the “MRHA IC100” value in [1] amounted to 200 µg/mL; in assay [2], 200 µg/mL; in assay [3], 100 µg/mL; in assay [4], 25 µg/mL; in assay [5] it was 100 µg/mL; in assay [6], 25 µg/mL. The “MRHA IC100” value stood at 25 µg/mL in assay [7]; 6.25 µg/mL in [8]; 6.25 µg/mL in [9]; 200 µg/mL in assay [10]; 6.25 µg/mL in assay [11].

B3: VHH antibody 1D7 (monomeric) (VHH)
VHH: EVQLVESGGGLVQAGGSLTLSCAASERTFSYYVMAWFRQAPGKEREFVAGISMSGDSTKYADSVKGRFTISRDNAENTGYLQMNGLKPEDTAVYYCAADRDIRGNFRSWGRGTQVTVSS
notes: also called clone 1D7
Consider B3, for which the “MRHA IC100” value in [1] was found to be 50 µg/mL; in assay [2], 100 µg/mL; in [3], 50 µg/mL; in assay [4], 12.5 µg/mL; in assay [5] it was 200 µg/mL; in assay [6], 100 µg/mL. Also, the “MRHA IC100” value is 25 µg/mL in [7]; 3.12 µg/mL in [8]; 50 µg/mL in [9]; 100 µg/mL in assay [10]; 6.25 µg/mL in [11]. Also, the binding result in assay [13] is on record as “no binding”. In assay [12], the Kd is 17.7 nM. Besides, the koff in assay [12] was found to be 0.0311 s⁻¹. In addition, the kon in assay [12] stood at 1.75e+06 M⁻¹ s⁻¹.

The record behind these values is patent publication US20220025022A1 (published 2022).
